T1: Human TLL1 (human, UniProt O43897 148-1013, limits assumed)
T1 sequence (looked up): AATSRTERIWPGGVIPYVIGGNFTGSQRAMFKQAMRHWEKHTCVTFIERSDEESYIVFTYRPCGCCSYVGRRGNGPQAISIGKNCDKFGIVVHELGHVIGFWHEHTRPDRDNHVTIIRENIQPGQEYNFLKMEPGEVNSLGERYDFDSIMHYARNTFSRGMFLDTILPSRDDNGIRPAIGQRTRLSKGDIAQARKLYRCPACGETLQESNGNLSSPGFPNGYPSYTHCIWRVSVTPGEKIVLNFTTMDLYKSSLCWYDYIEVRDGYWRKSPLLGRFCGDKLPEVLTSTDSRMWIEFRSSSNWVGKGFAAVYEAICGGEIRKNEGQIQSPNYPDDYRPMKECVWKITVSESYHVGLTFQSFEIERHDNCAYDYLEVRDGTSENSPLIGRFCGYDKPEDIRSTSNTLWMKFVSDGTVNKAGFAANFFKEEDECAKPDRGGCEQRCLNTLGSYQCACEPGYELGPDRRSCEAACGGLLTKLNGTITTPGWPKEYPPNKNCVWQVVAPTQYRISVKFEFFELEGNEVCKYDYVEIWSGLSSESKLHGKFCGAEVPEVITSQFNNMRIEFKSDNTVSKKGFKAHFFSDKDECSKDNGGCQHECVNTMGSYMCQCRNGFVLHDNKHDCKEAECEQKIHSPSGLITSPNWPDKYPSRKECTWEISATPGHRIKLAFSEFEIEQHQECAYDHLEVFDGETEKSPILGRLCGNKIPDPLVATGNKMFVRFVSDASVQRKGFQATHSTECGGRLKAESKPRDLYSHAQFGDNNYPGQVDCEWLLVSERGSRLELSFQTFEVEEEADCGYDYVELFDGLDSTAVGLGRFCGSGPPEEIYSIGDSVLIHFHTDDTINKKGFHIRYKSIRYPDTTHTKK

T2: Cyno TLL1 (cyno, UniProt A0A1D5QYV0 148-1013 (rhesus entry))
T2 sequence: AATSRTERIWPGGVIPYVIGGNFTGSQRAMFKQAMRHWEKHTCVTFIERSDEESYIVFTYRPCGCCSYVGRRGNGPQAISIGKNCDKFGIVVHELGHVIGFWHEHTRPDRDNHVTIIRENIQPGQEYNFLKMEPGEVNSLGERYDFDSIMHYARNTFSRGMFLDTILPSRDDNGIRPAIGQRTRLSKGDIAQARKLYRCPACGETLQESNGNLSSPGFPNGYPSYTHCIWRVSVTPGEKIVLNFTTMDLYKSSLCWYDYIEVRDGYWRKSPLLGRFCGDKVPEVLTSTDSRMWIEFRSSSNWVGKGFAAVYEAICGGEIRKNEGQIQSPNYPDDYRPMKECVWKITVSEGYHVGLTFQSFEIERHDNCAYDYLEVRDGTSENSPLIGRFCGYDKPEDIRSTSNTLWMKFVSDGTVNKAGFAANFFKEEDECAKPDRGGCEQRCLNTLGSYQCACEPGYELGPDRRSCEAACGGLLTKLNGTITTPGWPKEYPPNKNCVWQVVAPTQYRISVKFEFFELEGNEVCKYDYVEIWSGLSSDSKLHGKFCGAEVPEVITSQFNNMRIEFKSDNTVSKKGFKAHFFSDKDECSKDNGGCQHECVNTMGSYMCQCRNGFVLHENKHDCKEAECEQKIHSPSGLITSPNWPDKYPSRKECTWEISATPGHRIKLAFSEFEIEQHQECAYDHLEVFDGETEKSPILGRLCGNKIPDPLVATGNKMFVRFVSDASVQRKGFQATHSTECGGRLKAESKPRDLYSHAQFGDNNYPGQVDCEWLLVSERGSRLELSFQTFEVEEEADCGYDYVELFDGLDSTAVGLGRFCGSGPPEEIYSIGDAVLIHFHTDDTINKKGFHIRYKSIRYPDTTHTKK

T3: Human BMP1 CD+CUB1 truncated antigen (human, UniProt P13497 121-434, limits assumed)
T3 construct: domain: CD+CUB1
T3 sequence (looked up): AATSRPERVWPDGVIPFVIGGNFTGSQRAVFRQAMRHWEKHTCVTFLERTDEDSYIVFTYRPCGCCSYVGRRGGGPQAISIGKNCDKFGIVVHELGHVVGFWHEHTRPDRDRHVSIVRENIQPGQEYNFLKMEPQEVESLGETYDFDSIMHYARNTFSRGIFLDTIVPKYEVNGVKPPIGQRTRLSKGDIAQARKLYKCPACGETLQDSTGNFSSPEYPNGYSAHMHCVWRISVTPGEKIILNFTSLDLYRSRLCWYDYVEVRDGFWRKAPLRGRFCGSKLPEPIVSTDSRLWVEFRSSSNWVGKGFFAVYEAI

B1: 13Y039-127G03-2890 (antibody, human IgG1, kappa, V domains shown)
VH: QVQLVQSGAEVKKPGSSVKVSCKASGGTFSSYAISWVRQAPGQGLEWMGGIIPVFGSAYYAQKFQGRVTITADESTSTAYMELSSLRSEDTAVYYCAGEGRAYYGSESYDDSDYMDVWGKGTTVTVSS
VL: DIQMTQSPSSLSASVGDRVTITCQASQDISNYLNWYQQKPGKAPKLLIYDASNLETGVPSRFSGSGSGTDFTFTISSLQPEDIATYYCQQADIFPLTFGGGTKVEIKR
notes: Fully human IgG1 LAGA, kappa; HEK expressed
B2: 13Y039-152B02-2940 (antibody, human IgG1, kappa, V domains shown)
VH: QVQLVQSGAEVKKPGSSVKVSCKASGGTFSSDAISWVRQAPGQGLEWMGGIITNFGTATYAQKFQGRVTITADESTSTAYMELSSLRSEDTAVYYCARDVGVQLVYHGAFDIWGQGTMVTVSS
VL: DIQMTQSPSSLSASVGDRVTITCQASQDISNYLNWYQQKPGKAPKLLIYDASNLATGVPSRFSGSGSGTDFTFTISSLQPEDIATYYCQQDDYLPITFGGGTKVEIKR
notes: as for B1
B3: 13Y039-152B02-2935 (antibody, human IgG1, kappa, V domains shown)
VH: QVQLVQSGAEVKKPGSSVKVSCKASGGTFSESAISWVRQAPGQGLEWMGGIIPTFDTTNYAQKFQGRVTITADESTSTAYMELSSLRSEDTAVYYCARDVGVQLVYHGAFDIWGQGTMVTVSS
VL: DIQMTQSPSSLSASVGDRVTITCQASQDISNYLNWYQQKPGKAPKLLIYDASNLATGVPSRFSGSGSGTDFTFTISSLQPEDIATYYCQQDDYLPITFGGGTKVEIKR
notes: as for B1
B4: 13Y039-152B02-2948 (antibody, human IgG1, kappa, V domains shown)
VH: QVQLVQSGAEVKKPGSSVKVSCKASGGTFSDFAISWVRQAPGQGLEWMGGIIPIYGTASYAQKFLGRVTITADESTSTAYMELSSLRSEDTAVYYCARDVGVQLVYHGAFDIWGQGTMVTVSS
VL: DIQMTQSPSSLSASVGDRVTITCQASQDISNYLNWYQQKPGKAPKLLIYDASNLATGVPSRFSGSGSGTDFTFTISSLQPEDIATYYCQQDDYLPITFGGGTKVEIKR
notes: as for B1
B5: 13Y039-4B06-4324 (antibody, human IgG1, kappa, V domains shown)
VH: QVQLVQSGAEVKKPGASVKVSCKASGYTFRGYYMSWVRQAPGQGLEWMGWINPMSGETNYAQKFQGRVTMTRDTSISTAYMELSRLRSDDTAVYYCARDTGELDGMNWYFDLWGRGTLVTVSS
VL: EIVLTQSPATLSLSPGERATLSCRASQSVSSYLAWYQQKPGQAPRLLIYDASNRATGIPARFSGSGSGTDFTLTISSLEPEDFAVYYCQQSDSWPPTFGGGTKVEIKR
notes: as for B1
B6: 13Y039-4B06-4325 (antibody, human IgG1, kappa, V domains shown)
VH: QVQLVQSGAEVKKPGASVKVSCKASGYTFWGYYMSWVRQAPGQGLEWMGWINPQSGETNYAQKFQGRVTMTRDTSISTAYMELSRLRSDDTAVYYCARDTGELDGMNWYFDLWGRGTLVTVSS
VL: EIVLTQSPATLSLSPGERATLSCRASQSVSSYLAWYQQKPGQAPRLLIYDASNRATGIPARFSGSGSGTDFTLTISSLEPEDFAVYYCQQSDSWPPTFGGGTKVEIKR
notes: as for B1
B7: 13Y039-4B06-4327 (antibody, human IgG1, kappa, V domains shown)
VH: QVQLVQSGAEVKKPGASVKVSCKASGYTFPGYYMTWVRQAPGQGLEWMGNINPNSGWTNYAQKFQGRVTMTRDTSISTAYMELSRLRSDDTAVYYCARDTGELDGMNWYFDLWGRGTLVTVSS
VL: EIVLTQSPATLSLSPGERATLSCRASQSVSSYLAWYQQKPGQAPRLLIYDASNRATGIPARFSGSGSGTDFTLTISSLEPEDFAVYYCQQSDSWPPTFGGGTKVEIKR
notes: as for B1
B8: 13Y039-4B06-4328 (antibody, human IgG1, kappa, V domains shown)
VH: QVQLVQSGAEVKKPGASVKVSCKASGYTFHGYYMNWVRQAPGQGLEWMGWINPLSGETNYAQKFQGRVTMTRDTSISTAYMELSRLRSDDTAVYYCARDTGELDGMNWYFDLWGRGTLVTVSS
VL: EIVLTQSPATLSLSPGERATLSCRASQSVSSYLAWYQQKPGQAPRLLIYDASNRATGIPARFSGSGSGTDFTLTISSLEPEDFAVYYCQQSDSWPPTFGGGTKVEIKR
notes: as for B1
B9: 13Y039-4B06-4348 (antibody, human IgG1, kappa, V domains shown)
VH: QVQLVQSGAEVKKPGASVKVSCKASGYTFGGYYMSWVRQAPGQGLEWMGWINPNSGETYYAQKFQGRVTMTRDTSISTAYMELSRLRSDDTAVYYCARDTGELDGMNWYFDLWGRGTLVTVSS
VL: EIVLTQSPATLSLSPGERATLSCRASQSVSSYLAWYQQKPGQAPRLLIYDASNRATGIPARFSGSGSGTDFTLTISSLEPEDFAVYYCQQSDSWPPTFGGGTKVEIKR
notes: as for B1
B10: 13Y039-4B06-4351 (antibody, human IgG1, kappa, V domains shown)
VH: QVQLVQSGAEVKKPGASVKVSCKASGYTFSGYYMSWVRQAPGQGLEWMGWINPNSGETFYAQKFQGRVTMTRDTSISTAYMELSRLRSDDTAVYYCARDTGELDGMNWYFDLWGRGTLVTVSS
VL: EIVLTQSPATLSLSPGERATLSCRASQSVSSYLAWYQQKPGQAPRLLIYDASNRATGIPARFSGSGSGTDFTLTISSLEPEDFAVYYCQQSDSWPPTFGGGTKVEIKR
notes: as for B1
B11: 13Y039-4B06-4364 (antibody, human IgG1, kappa, V domains shown)
VH: QVQLVQSGAEVKKPGASVKVSCKASGYTFRGYYMSWVRQAPGQGLEWMGWINPNSGETIYAQKFQGRVTMTRDTSISTAYMELSRLRSDDTAVYYCARDTGELDGMNWYFDLWGRGTLVTVSS
VL: EIVLTQSPATLSLSPGERATLSCRASQSVSSYLAWYQQKPGQAPRLLIYDASNRATGIPARFSGSGSGTDFTLTISSLEPEDFAVYYCQQSDSWPPTFGGGTKVEIKR
notes: as for B1
B12: 13Y039-4B06-4373 (antibody, human IgG1, kappa, V domains shown)
VH: QVQLVQSGAEVKKPGASVKVSCKASGYTFRSYYMNWVRQAPGQGLEWMGIINPSSGETSYAQKFQGRVTMTRDTSTSTVYMELSSLRSEDTAVYYCARDTGELDGMNWYFDLWGRGTLVTVSS
VL: EIVLTQSPATLSLSPGERATLSCRASQSVSSYLAWYQQKPGQAPRLLIYDASNRATGIPARFSGSGSGTDFTLTISSLEPEDFAVYYCQQSDSWPPTFGGGTKVEIKR
notes: as for B1

How the values were obtained:
Human TLL1 = target: T1, Human TLL1; experiment: cell-based or functional assay
Cyno TLL1 = target: T2, Cyno TLL1; experiment: cell-based or functional assay
[1] = target: T3, Human BMP1 CD+CUB1 truncated antigen; experiment: SPR, mAb captured on protein A, HBS-EP
Procedure: The 16 lead panel antibodies expressed in HEK cells were evaluated for binding to a truncated version of human BMP containing the catalytic domain and truncated domain (Human BMP1 CD+CUB1 truncated antigen) by SPR using BIACORE T200. HBS-EP+ buffer was used and the experiment run at 25° C. Protein A was immobilised to a CM5 sensor chip via amine coupling. The lead panel antibodies were captured onto protein A surface. Human BMP1 CD+CUB1 was then passed over the captured antibodies at various concentrations.

IC50, FRET enzyme activity, 250 pM biotinylated huTLL-1 (Human TLL1) | IC50, FRET enzyme activity, 750 pM biotinylated cynoTLL-1 (Cyno TLL1) | Kd [1] | Binder
18.2 nM | 0.22 nM | 0.3 nM | B1
0.05 nM | 0.06 nM | 1.9 nM | B2
0.09 nM | 0.11 nM | 0.8 nM | B3
0.08 nM | 0.07 nM | 1.4 nM | B4
0.03 nM | 0.07 nM | 3.9 nM | B5
0.02 nM | 0.05 nM | 2.8 nM | B6
0.01 nM | 0.02 nM | 1.5 nM | B7
0.04 nM | 0.07 nM | 2.8 nM | B8
0.04 nM | 0.18 nM | 1.5 nM | B9
0.05 nM | 0.13 nM | 1.9 nM | B10
0.06 nM | 0.11 nM | 2.4 nM | B11
0.04 nM | 0.08 nM | 3.3 nM | B12

— US20230279089A1 (GlaxoSmithKline, published 2023)
